Legend:
[1] = tested on: MS2 coat protein; assay: apparent KD of MS2 coat protein; higher = weaker reporter binding; conditions: Eterna round: R107
Description: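 RNA-MaP round R107: designed RNA switches with theophylline, tryptophan, arginine or FMN aptamers are transcribed on-chip within common flanks. They are titrated with SNAP-549-labelled MS2 coat protein in RNA-MaP buffer (100 mM Tris pH 7.5, 80 mM KCl, 4 mM MgCl2), without ligand or with the indicated ligand. Median apparent KD per design.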

[2] = tested on: K4 kissing-loop RNA reporter; assay: apparent KD of K4 kissing-loop reporter; higher = weaker reporter binding; conditions: Eterna round: R107;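 note: bound reporter read as fluorescence of individual clusters on recovered sequencing chips by microscopy, with normalized cluster intensities fitted with a binding model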
Description: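 RNA-MaP round R107: designed RNA switches with theophylline, tryptophan, arginine or FMN aptamers are transcribed on-chip within common flanks. They are titrated with a labelled K4 kissing-loop RNA reporter in RNA-MaP buffer (100 mM Tris pH 7.5, 80 mM KCl, 4 mM MgCl2), without ligand or with the indicated ligand. Median apparent KD per design.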

[3] = input ligand: theophylline 20 uM
[4] = input ligand: theophylline 2 mM
[5] = input ligand: tryptophan 2.4 mM

| Sequence | apparent KD of MS2 coat protein ([1]; input ligand: arginine 13.2 mM) | apparent KD of MS2 coat protein ([1]; input ligand: none) | apparent KD of MS2 coat protein [1, 3] | apparent KD of MS2 coat protein [1, 4] | apparent KD of MS2 coat protein [1, 5] | apparent KD of K4 kissing-loop reporter ([2]; input ligand: FMN 200 uM) | apparent KD of K4 kissing-loop reporter ([2]; input ligand: arginine 13.2 mM) | apparent KD of K4 kissing-loop reporter ([2]; input ligand: none) | apparent KD of K4 kissing-loop reporter [2, 3] | apparent KD of K4 kissing-loop reporter [2, 5] |
| --- | --- | --- | --- | --- | --- | --- | --- | --- | --- | --- |
| UAUCCACAUGAGGAUCACCCAUGUUAGGAAGGAGCGGUGAAUGAACCAGGUAGGUCGCCUAGGUGAGGAUCAUCUAUGGAUUCGU [Exclusion - Arginine A (Freestyle 11)] | 30 nM | 30.2 nM | 37.3 nM | 38.3 nM | 31.7 nM |  |  |  |  |  |
| AUCGUACCUGAUGAUACCAGCAAUUGCUCGUAACAUGAGGAUCACCCAUGUGAUCAGUGAUGCCCUUGGCAGCAUGAUCGGUGCA [Same State - Theophylline B (Freestyle 19)] | 52.8 nM |  | 183 nM |  | 248 nM |  |  |  |  |  |
| GCUUGGGUGGCACGGCCCUGGCGGUGCGAUACCAGCACGGUAACGUGCCCUUGGCAGCGCACAUGAGGAUCACCCAUGUGGUGCG [#1 Exclusion - Theophylline A Attempt #24 (HarryS)] | 13.1 nM | 15.6 nM | 21.9 nM | 185 nM | 13.7 nM |  |  |  |  |  |
| AAGACAUGAGGAUCACCCAUGUCGUCAACACGAGGACCGGUACGGCCGCCACUCGCAUGCCAAUGAGCGCAUGCGGCCUGGGUAU [Exclusion Tryp A GF4] | 8.77 nM | 14.8 nM | 18 nM | 13.8 nM | 34.3 nM |  |  |  |  |  |
| AAUAAACAUGAGGAUCACCCAUGUAUGGAAGGAGCGGUGAAUAAACCAGGUAGGUCGCCAGUGUGAGGGUCAUCUAUGUAAUAAA [Exclusion - Arginine A (Freestyle 2)] | 68.4 nM | 42.7 nM | 43.1 nM | 56.2 nM | 37.9 nM |  |  |  |  |  |
| UCACAUGAGGAUCACCCAUGUCAUGUUGAAGGAGCGACCAGGAGGUCAGGUAGGUCGCAACACAUGAGGAUCACCCAUGUGGCCC [Qetesh] | 87.5 nM | 172 nM | 119 nM | 159 nM | 149 nM |  |  |  |  |  |
| UGGGUCGGAUGAGGAAAUUGUCCGACGUAUCGAGGACCGGUACGGCCGCCACUCGGUUGUACAUGAGGAUCACCCAUGUCAGGGU [#1 Same State - Tryptophan A Attempt #15 (HarryS)] | 194 nM | 218 nM | 269 nM | 327 nM | 128 nM |  |  |  |  |  |
| AUACAUGAGGCGGCCGCCACUUUACAUGAGGAUCAACAUGAGGAUCACCCAUGUUACAUGUGGAUAAGGACCGGGCCUCAUGUAU [Same State Tryptophan B 2] | 51.9 nM | 180 nM | 178 nM | 313 nM | 91.2 nM |  |  |  |  |  |
| CUAUAAGUACCGGUCCUCAGAUCCUCAUGACGAGGACCGGUACGGCCGCCACUCGAAACAUGAGGAUCACCCAUGUAAUAAUACC [Brourdmod16] | 17.5 nM |  | 47.5 nM | 62.6 nM |  |  |  |  |  |  |
| AAUGUCGGAUCGGCCGCCACUGGUUGGCCCUGUGUACAUGAGGAUCACCCAUGUCCAUCCCAAACCAGGACCGGGAUCUUUAUGU [Xeananor] | 37.9 nM |  | 51.7 nM | 40.4 nM |  |  |  |  |  |  |
| CGCCGCGGGAGAAGGAGCGCGAUAACAUAACAUGAGGAUCACCCAUGUAAGAAAUUAAUCAUGCAGGUAGGUCGCUCCCGCGGCG [Same State Arginine B GF 4] | 16.3 nM | 19.5 nM | 26.5 nM | 23.3 nM | 22.5 nM |  |  |  |  |  |
| UGUACUAUGUGAAGGAGCGAGAAUCCUACAUGAGGAUCACCCAUGUAAGAGCGAAAGCUCACUCAGGUAGGUCGCACAUAGUACU [#17 Same State - Arginine B] | 31.7 nM | 42.9 nM | 44.1 nM | 43.7 nM | 48.8 nM |  |  |  |  |  |
| AACUGGGUUCGUGAUACCAGCUCACACAUGAGGAUCACCCAUGUAGUGGGUAAAAUGUGGAGCCCUUGGCAGCACUGUGACCACG [Esria] | 14.6 nM |  | 25.4 nM |  | 14.4 nM |  |  |  |  |  |
| GGGCAAGAGGGAAGGAGCGUUAGCUGAGUCACAUGAGGAUCACCCAUGUCGCACGUAGUAUGACAGGUAGGUCGCCCUCUACCCU [SS-ArgB15] | 18 nM | 18.1 nM | 22.1 nM | 21.6 nM | 18.9 nM |  |  |  |  |  |
| GGGUGGUAGGCGGCCGCCACUGAUUUUCAUUUAUAGAUGACAUGAGGAUCACCCAUGUUUAUGUGCAGGACCGGGCCUGCUGUGG [aaaT] | 102 nM | 68 nM | 130 nM | 137 nM | 78.2 nM |  |  |  |  |  |
| AUGCAACAUGAGGAUCACCCAUGUGGUGAUACCAGUCGACAAGUAGACCCUUGGCAGCACAGCCGAUAUCGAGAGAGAUUUUUGG [theeternabot_sameState_MS2_Theo_A_23] | 64.4 nM |  | 476 nM |  | 824 nM |  |  |  |  |  |
| ACUCGGCAUCAUGAUACCAGAGAGCCCGAGAUGCCUUAACACAUGAGGAUCACCCAUGUACUCCCUUGGCAGCAUCAUGCACUAU [theeternabot_exclusion_MS2_Theo_B_31] | 16.6 nM |  | 29 nM |  | 22.7 nM |  |  |  |  |  |
| GUCCAAAGGUCGGCCGCCACUGUAGGAUGUGUUCUUUCACAUGAGGAUCACCCAUGUUGUUAUUAUAGGACCGGGAUUGUAGGAC [39MS split4] | 16.4 nM |  | 32.2 nM | 21.5 nM |  |  |  |  |  |  |

| Sequence | apparent KD of MS2 coat protein ([1]; input ligand: arginine 13.2 mM) | apparent KD of MS2 coat protein ([1]; input ligand: none) | apparent KD of MS2 coat protein [1, 3] | apparent KD of MS2 coat protein [1, 4] | apparent KD of MS2 coat protein [1, 5] | apparent KD of K4 kissing-loop reporter ([2]; input ligand: FMN 200 uM) | apparent KD of K4 kissing-loop reporter ([2]; input ligand: arginine 13.2 mM) | apparent KD of K4 kissing-loop reporter ([2]; input ligand: none) | apparent KD of K4 kissing-loop reporter [2, 3] | apparent KD of K4 kissing-loop reporter [2, 5] |
| --- | --- | --- | --- | --- | --- | --- | --- | --- | --- | --- |
| AAGAUACUCUGAAGGAGCGUCAUAAAACAUGAGGAUCACCCAUGUGCGCGGGUGUAAUUAUGACAGGUAGGUCGCAGAGUAUUUA [Arg B SS t2] | 424 nM | 179 nM | 515 nM | 601 nM | 442 nM |  |  |  |  |  |
| UGGGCUGGGUGCGUAAAGGGCCUGGCGCAUCGAGGACCGGUACGGCCGCCACUCGGCUGUACAUGAGGAUCACCCAUGUCAGGGU [#1 Same State - Tryptophan A Attempt #18 (HarryS)] | 45.9 nM | 192 nM | 552 nM | 506 nM | 364 nM |  |  |  |  |  |
| UGGUACAUGAGGAUCACCCAUGUUCCAGAUACCAGAUACCCGGUUAUCCCUUGGCAGCUGGUGUUACAUGAGGAUCACCCAUGUU [Exclusion Theophylline A GF16] | 23.9 nM | 30.4 nM | 46 nM | 81.9 nM | 37.2 nM |  |  |  |  |  |
| GUAAUUUAUUGAAGGAGCGUCGAAAAUGGGUAAACAUGAGGAUCACCCAUGUAAAGGGAACGACAGGUAGGUCGCAAUAGGUUAC [AstromonsSSArgB#29] | 103 nM | 192 nM | 252 nM | 285 nM | 197 nM |  |  |  |  |  |
| ACCUGUACGAAAAGUGCAGGACAUGGUAAACGAGGACCGGUACGGCCGCCACUCGAAUAACAAGUGGAUCACCCUUGUAACCAUG [TrypAS 5 #AlternativeMS2 #Zipper #StaticStem] | 39.6 nM | 223 nM | 573 nM | 3020 nM | 1090 nM |  |  |  |  |  |
| UUUUAAUGUGCGGAUACCAGCCGUACAUGAGGAUCACCCAUGUCGCUGUUGAGCAUCGUCGGCCCUUGGCAGCUGUGUGUAGUUG [#27 Same State - Theophylline B] | 26.2 nM | 51.9 nM | 62.7 nM | 66 nM | 42.3 nM |  |  |  |  |  |
| AUCCAUAGCCGAAGGAGCGCAGUAGGAUGACAUGAGGAUCACCCAUGUGUGUGAUGUGGAUUGCAGGUAGGUCGCGGAGUGGGAU [Exclusion - Arginine B (Freestyle 6)] | 35 nM | 58.7 nM | 135 nM | 63 nM | 47.2 nM |  |  |  |  |  |
| ACAUGAGGAUCACCCAUGUUUGUUGUUCCUCGAGGACCGGUACGGCCGCCACUCGAACGAGUGGCACGCGAGUGCGCACUCGCGU [aPa] | 13.9 nM |  | 19.6 nM | 13.1 nM | 13 nM |  |  |  |  |  |
| GCUAGGUCAUCGGCCGCCACUAACGAUGGCUCCGACAUGAGGAUCACCCAUGUGCCACUUGCGCAUAGGACCGGGAUGACCUAGC [SSTB NP+V+V2 #1] | 17.7 nM | 15 nM | 24.3 nM | 17.2 nM | 11.5 nM |  |  |  |  |  |
| CAUACUUUAGUAUGACAUGUGGGCAGUGAUACCAGAUACGAAAGUAUCCCUUGGCAGCACAACAUGAGGAUCACCCAUGUAAUUA [Theophylline A 2] | 26.1 nM |  | 52 nM |  | 37.3 nM |  |  |  |  |  |
| CCAUCUUCAUCGGCCGCCACUGAACCAAGGAGACAUGAGGAUCACCCAUGUAUGGGAAACCAUCAUAGGACCGGGAUGAAGGUGG [doubleHookLine] | 36 nM |  | 56.1 nM | 48.1 nM |  |  |  |  |  |  |
| AGCCCAUUACAUGAGGAUCACCCAUGUGAUACCAGUCAGGAAACUGACCCUUGGCAGCGCAUGAGGAUCACCCAUGCGCUGGGCA [Omei Theo A Exc A v6] | 10 nM |  | 11.7 nM |  | 12.2 nM |  |  |  |  |  |
| GAGCACAUGAGGAUCACCCAUGUUGGCACACGAGGACCGGUACGGCCGCCACUCGCGGCGGGAAUAACUUUGCGCAGAUGAUGGG [theeternabot_sameState_MS2_Trp_A_50] | 27.5 nM | 23.9 nM | 37.5 nM | 23.7 nM | 21.4 nM |  |  |  |  |  |
| UUAUGCAGGUCGGCCGCCACUACACACAUGAGGAUCACCCAUGUAGUUACUGGGUGAAGUGGCAGUAGGACCGGGACCUGCACAC [Brourdmod14] | 148 nM | 470 nM | 403 nM | 823 nM | 891 nM |  |  |  |  |  |
| CAUACGCAUGGAGGAUAUGAGAUUACUCAUAUCAUUUAAUAUUCUCAGUGAUGUUGAGAUUUAGACUCAGAAGGCCAUGUGUAUG [Ex FMN B 13] |  |  |  |  |  | 302 nM | 310 nM | 350 nM | 357 nM | 317 nM |
| AGCUAGUGAAACUAGUUUAAACUAGGUGAAGGAGCGAUCGAAAGAUCAGGUAGGUCGCACCUAACUGAGUGAUGUUCAGGAAAUA [KL-SSArg-A4] |  |  |  |  |  | 67.1 nM | 54.3 nM | 70.7 nM | 66.7 nM | 61.3 nM |
| UGGAUAUAGUGAUGUUAUAUAGAGAUGGAUACCAGCAGAGAGAAUUGCCCUUGGCAGCCGAAAGAAGUAUCAUUAGAGAAGAAUG [ExTheophyl.Ai] |  |  |  |  |  | 208 nM | 180 nM | 253 nM | 214 nM | 210 nM |

Source: the supplement of paper PMC9170038
